Measurements reported in the Human Domainome abundance scans (Beltran et al. 2025).
± gives the uncertainty stated by the source.

B1: POU domain, class 4, transcription factor 3, residues 185 to 256; numbered along this chain, Q15319 (parent)
chain: RELEAFAERFKQRRIKLGVTQADVGAALANLKIPGVGSLSQSTICRFESLTLSHNNMIALKPVLQAWLEEAE

Variants of: B1
Test: abundance fitness (aPCA) (normalised: wild type 0, dead -1); higher = more abundant; growth selection in yeast, the domain comes from the species named
Details: Homo sapiens

Variant	abundance fitness
RELEAFAERFKQRRIKLGVTQADVGAALANLKIPGVGSLSQSTICRFESLTLSHNNMIALNPVLQAWLEEAE [K61N]	-0.658 ± 0.092
RELEAFAERFKQRRIKLGVTQADVGAALANLKIPGVGSLSQSTICRFESLTLSHNNMIALYPVLQAWLEEAE [K61Y]	-0.038 ± 0.058
RELEAFAERFKQRRIKLGVTQADVGAALANLKIPGVGSLSQSTICRFESLTLSHNNMIALPPVLQAWLEEAE [K61P]	-1.12 ± 0.18
RELEAFAERFKQRRIKLGVTQADVGAALANLKIPGVGSLSQSTICRFESLTLSHNNMIALFPVLQAWLEEAE [K61F]	-0.36 ± 0.055
RELEAFAERFKQRRIKLGVTQADVGAALANLKIPGVGSLSQSTICRFESLTLSHNNMIALIPVLQAWLEEAE [K61I]	-0.128 ± 0.069
RELEAFAERFKQRRIKLGVTQADVGAALANLKIPGVGSLSQSTICRFESLTLSHNNMIALQPVLQAWLEEAE [K61Q]	-0.222 ± 0.11
RELEAFAERFKQRRIKLGVTQADVGAALANLKIPGVGSLSQSTICRFESLTLSHNNMIALHPVLQAWLEEAE [K61H]	-0.105 ± 0.062
RELEAFAERFKQRRIKLGVTQADVGAALANLKIPGVGSLSQSTICRFESLTLSHNNMIALTPVLQAWLEEAE [K61T]	-0.061 ± 0.058
RELEAFAERFKQRRIKLGVTQADVGAALANLKIPGVGSLSQSTICRFESLTLSHNNMIALLPVLQAWLEEAE [K61L]	-0.217 ± 0.044
RELEAFAERFKQRRIKLGVTQADVGAALANLKIPGVGSLSQSTICRFESLTLSHNNMIALMPVLQAWLEEAE [K61M]	0.02 ± 0.1
RELEAFAERFKQRRIKLGVTQADVGAALANLKIPGVGSLSQSTICRFESLTLSHNNMIAGKPVLQAWLEEAE [L60G]	-0.638 ± 0.5
RELEAFAERFKQRRIKLGVTQADVGAALANLKIPGVGSLSQSTICRFESLTLSHNNMIAKKPVLQAWLEEAE [L60K]	-0.859 ± 0.3
RELEAFAERFKQRRIKLGVTQADVGAALANLKIPGVGSLSQSTICRFESLTLSHNNMIARKPVLQAWLEEAE [L60R]	-0.845 ± 0.25
RELEAFAERFKQRRIKLGVTQADVGAALANLKIPGVGSLSQSTICRFESLTLSHNNMIAQKPVLQAWLEEAE [L60Q]	-0.376 ± 0.24
RELEAFAERFKQRRIKLGVTQADVGAALANLKIPGVGSLSQSTICRFESLTLSHNNMIAAKPVLQAWLEEAE [L60A]	-0.289 ± 0.17
RELEAFAERFKQRRIKLGVTQADVGAALANLKIPGVGSLSQSTICRFESLTLSHNNMIALKHVLQAWLEEAE [P62H]	-0.109 ± 0.12
RELEAFAERFKQRRIKLGVTQADVGAALANLKIPGVGSLSQSTICRFESLTLSHNNMIALKGVLQAWLEEAE [P62G]	-0.244 ± 0.036
RELEAFAERFKQRRIKLGVTQADVGAALANLKIPGVGSLSQSTICRFESLTLSHNNMIALKAVLQAWLEEAE [P62A]	-0.376 ± 0.043
RELEAFAERFKQRRIKLGVTQADVGAALANLKIPGVGSLSQSTICRFESLTLSHNNMIALKCVLQAWLEEAE [P62C]	-0.565 ± 0.053

Variant	abundance fitness
RELEAFAERFKQRRIKLGVTQADVGAALANLKIPGVGSLSQSTICRFESLTLSHNNMIALKEVLQAWLEEAE [P62E]	-0.23 ± 0.049
RELEAFAERFKQRRIKLGVTQADVGAALANLKIPGVGSLSQSTICRFESLTLSHNNMIALKKVLQAWLEEAE [P62K]	-0.177 ± 0.052
RELEAFAERFKQRRIKLGVTQADVGAALANLKIPGVGSLSQSTICRFESLTLSHNNMIALKFVLQAWLEEAE [P62F]	-0.461 ± 0.058
RELEAFAERFKQRRIKLGVTQADVGAALANLKIPGVGSLSQSTICRFESLTLSHNNMIALKMVLQAWLEEAE [P62M]	-0.56 ± 0.046
RELEAFAERFKQRRIKLGVTQADVGAALANLKIPGVGSLSQSTICRFESLTLSHNNMIALKNVLQAWLEEAE [P62N]	-0.371 ± 0.094
RELEAFAERFKQRRIKLGVTQADVGAALANLKIPGVGSLSQSTICRFESLTLSHNNMIALKDVLQAWLEEAE [P62D]	-0.413 ± 0.081
RELEAFAERFKQRRIKLGVTQADVGAALANLKIPGVGSLSQSTICRFESLTLSHNNMIALKLVLQAWLEEAE [P62L]	-0.53 ± 0.028
RELEAFAERFKQRRIKLGVTQADVGAALANLKIPGVGSLSQSTICRFESLTLSHNNMIALKIVLQAWLEEAE [P62I]	-0.753 ± 0.1
RELEAFAERFKQRRIKLGVTQADVGAALANLKIPGVGSLSQSTICRFESLTLSHNNMMALKPVLQAWLEEAE [I58M]	0.153 ± 0.12
RELEAFAERFKQRRIKLGVTQADVGAALANLKIPGVGSLSQSTICRFESLTLSHNNMQALKPVLQAWLEEAE [I58Q]	-0.055 ± 0.072
RELEAFAERFKQRRIKLGVTQADVGAALANLKIPGVGSLSQSTICRFESLTLSHNNMYALKPVLQAWLEEAE [I58Y]	-0.123 ± 0.082
RELEAFAERFKQRRIKLGVTQADVGAALANLKIPGVGSLSQSTICRFESLTLSHNNMSALKPVLQAWLEEAE [I58S]	-0.034 ± 0.055
RELEAFAERFKQRRIKLGVTQADVGAALANLKIPGVGSLSQSTICRFESLTLSHNNMTALKPVLQAWLEEAE [I58T]	-0.044 ± 0.072
RELEAFAERFKQRRIKLGVTQADVGAALANLKIPGVGSLSQSTICRFESLTLSHNNMPALKPVLQAWLEEAE [I58P]	-1.06 ± 0.26
RELEAFAERFKQRRIKLGVTQADVGAALANLKIPGVGSLSQSTICRFESLTLSHNNMLALKPVLQAWLEEAE [I58L]	0.094 ± 0.065
RELEAFAERFKQRRIKLGVTQADVGAALANLKIPGVGSLSQSTICRFESLTLSHNNMNALKPVLQAWLEEAE [I58N]	-0.049 ± 0.05
RELEAFAERFKQRRIKLGVTQADVGAALANLKIPGVGSLSQSTICRFESLTLSHNNMISLKPVLQAWLEEAE [A59S]	-0.514 ± 0.4
RELEAFAERFKQRRIKLGVTQADVGAALANLKIPGVGSLSQSTICRFESLTLSHNNMILLKPVLQAWLEEAE [A59L]	-0.393 ± 0.39
RELEAFAERFKQRRIKLGVTQADVGAALANLKIPGVGSLSQSTICRFESLTLSHNNMIGLKPVLQAWLEEAE [A59G]	-0.085 ± 0.18
